# Test results taken from US20220411472A1 (FRED HUTCHINSON CANCER CENTER, published 2022).
# Where two headings read alike, the source gives them in different places.
# T1: OX40 receptor on activated human CD8+ T-cells (human, UniProt P43489 29-277)
# T1 construct: whole, on cells; also called CD134
# T1 sequence (looked up): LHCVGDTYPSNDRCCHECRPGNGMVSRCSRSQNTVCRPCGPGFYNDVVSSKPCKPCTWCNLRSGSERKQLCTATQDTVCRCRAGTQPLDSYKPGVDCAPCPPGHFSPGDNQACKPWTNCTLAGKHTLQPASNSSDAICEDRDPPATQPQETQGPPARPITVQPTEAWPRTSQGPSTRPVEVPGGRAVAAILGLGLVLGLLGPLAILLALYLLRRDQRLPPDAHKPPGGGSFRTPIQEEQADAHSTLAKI
# Key:
# [1] = target: Biotinylated Tir-10_v2 peptide, Biotin-Ahx-EHI-pY-DEVAAD
# [2] = target: Biotinylated Tir-10_v2 peptide, Biotin-Ahx-EHI-pY-DEVAAD; remark: listed apart in the source
# [3] = target: Tir10 phosphotyrosyl peptide, FITC-Ahx-EHI-pY-DEVAAD
# [4] = target: T1, OX40 receptor on activated human CD8+ …; assay: flow cytometry, CD8+ T-cells 4 days after anti-CD3/anti-CD28 bead activation, 2 µg/mL construct, secondary anti-His iFluor647; axis APC: OX40; lower panel
# Procedure: T-cell isolation, proliferation and activation assays. […] Cells were incubated for 30 min at 37° C. with cTRP24₆SS-scTrimer^OX40L (2 μg/mL) or cTRP24₆SS-scTrimer^4-1BBL (2 μg/mL) and subsequently stained at 4° C. using THE anti-His Ab (GenScript; #A00186).
Molecule,maximum binding response [1] [RU],maximum binding response [2] [RU],response [2] [RU],EC50 (read off the curve) [3] [nM],binding result [4]
Free SH2 domain of the human Nck2 adapter protein,125,10,80,400,–
"cTRP246SS-scTrimer^OX40L (6-repeat disulfide-stapled cTRP tetramer with a single chain trimer of OX40L on each subunit) (ligand, also called cTRP246SS-scTrimer^OX4OL; cTRP246SS-scFv^OX40L) QVSHRYPRIQSIKVQFTEYKKEKGFILTSQKEDEIMKVQNNSVIINCDGFYLISLKGYFSQEVNISLHYQKDEEPLFQLKKVRSVNSLMVASLTYKDKVYLNVTTDNTSLDDFHVNGGELILIHQNPGEFCVLGGGGSQVSHRYPRIQSIKVQFTEYKKEKGFILTSQKEDEIMKVQNNSVIINCDGFYLISLKGYFSQEVNISLHYQKDEEPLFQLKKVRSVNSLMVASLTYKDKVYLNVTTDNTSLDDFHVNGGELILIHQNPGEFCVLGGGGSQVSHRYPRIQSIKVQFTEYKKEKGFILTSQKEDEIMKVQNNSVIINCDGFYLISLKGYFSQEVNISLHYQKDEEPLFQLKKVRSVNSLMVASLTYKDKVYLNVTTDNTSLDDFHVNGGELILIHQNPGEFCVLGGGGSGGGGSCEAIKAAAELGKAGISSEEILELLRAAHELGLDPEAIKAAAELGKAGISSEEILELLRAAHELGLDPEAIKAAAELGKAGISSEEILELLRAAHELGLDPEAIKAAAELGKAGISSEEILELLRAAHELGLDPEAIKAAAELGKAGISSEEILELLRAAHELGLDPECIKAAAELGKAGISSEEILELLRAAHELGLGGSHHHHHH",–,–,–,–,binds
